Reference: article PMC6356355

Target: Toll-like receptor 9 (rat (endogenous in AR4-2J))

## Recombinant histone H4 (from UniProt P62805 1-103) (natural protein)
  blockade of H4 (5 mgL^-1)-induced calcium oscillations in AR4-2J cells by simultaneous perfusion of TLR9 antagonist ODN2088 (5 uM): 88%
